Test results reported in paper PMC5435683, “Crystal structure of TAZ-TEAD complex reveals a distinct interaction mode from that of YAP-TEAD complex” (Scientific Reports, 2017).

Key:
[1] = target: the molecule itself; assay: crystal structure; mTAZ (25-57) with mTEAD4 (210-427), co-expressed and co-purified; hanging drops, 6% PEG 10000, 0.05 M magnesium acetate, 0.1 M tri-sodium citrate pH 5.2, 20 °C; 2.9 Å; 4 TAZ and 4 TEAD in the asymmetric unit, two binding modes (1:1 and 2:2)
[2] = target: T1, mTEAD4 (residues 210-427) Cys360Ser (mouse, UniProt Q62296 210-427, Cys360 replaced with serine); assay: SEC; analytical gel filtration, Superdex 75 10/300 GL; control, cross-linked, and cross-linking reversed with 25 mM DTT for 1 hour at 25 °C; settings: both partners purified
T1 construct: TEAD4, mouse, residues 210-427, surface-exposed Cys360 replaced with serine; also called TEAD Cys360 to serine; source: E. coli BL21 (DE3), co-expressed with mTAZ (25-57) Asn33Cys, purified as a complex as the wild type

[3] = target: the molecule itself; assay: cross-linking + SEC-MALS; specific disulfide cross-linking of TAZ Asn33Cys with 1.5 mM CuCl2 and 5 mM phenanthroline, 1 hour at 25 °C, stopped with 50 mM EDTA; Superdex 75 5/150 GL, 20 mM Tris pH 8, 150 mM sodium chloride

T1 sequence (Q62296 210-427 C360S): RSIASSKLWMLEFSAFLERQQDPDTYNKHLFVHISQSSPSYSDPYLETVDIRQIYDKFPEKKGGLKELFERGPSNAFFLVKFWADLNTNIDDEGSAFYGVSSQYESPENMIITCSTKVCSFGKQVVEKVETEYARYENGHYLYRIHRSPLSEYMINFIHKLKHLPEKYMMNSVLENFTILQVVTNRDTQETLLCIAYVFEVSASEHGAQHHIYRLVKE

| stoichiometry N [2] | Binder | binding result [1] | stoichiometry N [3] |
| --- | --- | --- | --- |
|  | DTDLEALFNSVMNPKPSSWRKKILPESFFKEPD (domain or fragment, mouse, UniProt Q9EPK5 25-57, looked up, TAZ (WWTR1), mouse, residues 25-57 (helix α1, 13-residue loop, helix α2); Cloned with mTEAD4 in a modified pETDuet-1 vector; also called mouse TAZ; not shown: His6, N-terminal, cleaved) [mTAZ (residues 25-57)] | binds |  |
| 1 | DTDLEALFCSVMNPKPSSWRKKILPESFFKEPD (domain or fragment, mouse, UniProt Q9EPK5 25-57, looked up, TAZ (WWTR1), mouse, residues 25-57, Asn33 replaced with cysteine for disulfide cross-linking; In the cross-linked sample Cys33 of two copies is joined by a disulfide (copper phenanthroline); in the control and DTT samples it is not; also called TAZ Asn33Cys; source: E. coli BL21 (DE3), co-expressed with mTEAD4 (210-427) Cys360Ser, purified as a complex as the wild type; not shown: His6, …) [mTAZ (residues 25-57) Asn33Cys] |  | 2 |
